Data on one substance can be found in publication PMC3070748.

In the test the target is Gemin7 BiFC construct (UniProt Q9H840). Briefly: split reporter.
UniProt Q9H840, sequence (Q9H840 whole entry): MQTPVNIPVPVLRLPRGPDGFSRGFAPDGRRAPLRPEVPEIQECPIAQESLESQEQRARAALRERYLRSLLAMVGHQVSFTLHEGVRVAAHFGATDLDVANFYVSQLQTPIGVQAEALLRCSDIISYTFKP

For the substance “murine Unrip fused to a Venus fragment (BiFC construct) (from UniProt Q9Z1Z2 1-350) (natural protein)”, the percent of BiFC-positive cells came out at 56%.
